# Measurements as given in PMC6313988.
# Biological target: hypothetical protein ST2166 (putative isocitrate dehydrogenase) from Sulfolobus tokodaii strain 7 (Sulfolobus tokodaii strain 7)
# Assay: crystal structure; hanging-drop crystals of ST2166 (8 mg/mL) in 13% PEG 10,000, 100 mM HEPES pH 7.5, 10°C; space group P21, two monomers in the asymmetric unit; apo form at 2.0 Å and crystal soaked with 25 mM NADP+ at 2.4 Å
substance,measurement,value
hypothetical protein ST2166 (putative isocitrate dehydrogenase) from Sulfolobus tokodaii strain 7 (enzyme),stoichiometry N,2
